Laboratory results reported in article PMC2564731 (Molecular Systems Biology, 2008).

Assays:
Experiment in all cases: pull-down
[1] = biological target: T1, GLABRA3 (GL3), recombinant GST or His fusion protein (Arabidopsis, UniProt Q9FN69 1-637)
T1 sequence: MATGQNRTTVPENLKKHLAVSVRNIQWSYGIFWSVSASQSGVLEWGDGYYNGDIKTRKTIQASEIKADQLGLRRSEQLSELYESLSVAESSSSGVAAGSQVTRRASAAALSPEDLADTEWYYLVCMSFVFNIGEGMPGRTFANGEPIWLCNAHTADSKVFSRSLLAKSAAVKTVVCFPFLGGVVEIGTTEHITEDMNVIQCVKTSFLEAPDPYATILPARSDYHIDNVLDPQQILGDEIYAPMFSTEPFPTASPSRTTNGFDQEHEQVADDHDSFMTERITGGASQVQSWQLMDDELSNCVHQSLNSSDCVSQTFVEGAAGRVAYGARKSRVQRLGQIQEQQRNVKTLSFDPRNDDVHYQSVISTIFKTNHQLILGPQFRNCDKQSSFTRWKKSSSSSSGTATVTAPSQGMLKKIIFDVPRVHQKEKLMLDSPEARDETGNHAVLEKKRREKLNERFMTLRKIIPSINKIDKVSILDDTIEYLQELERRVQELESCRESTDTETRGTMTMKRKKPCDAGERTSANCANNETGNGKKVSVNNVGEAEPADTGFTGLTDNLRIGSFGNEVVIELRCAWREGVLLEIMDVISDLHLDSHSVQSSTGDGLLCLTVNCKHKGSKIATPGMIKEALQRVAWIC

[2] = biological target: T2, ENHANCER OF GLABRA3 (EGL3), recombinant GST or His fusion protein (Arabidopsis, UniProt Q9CAD0 1-596)
T2 sequence: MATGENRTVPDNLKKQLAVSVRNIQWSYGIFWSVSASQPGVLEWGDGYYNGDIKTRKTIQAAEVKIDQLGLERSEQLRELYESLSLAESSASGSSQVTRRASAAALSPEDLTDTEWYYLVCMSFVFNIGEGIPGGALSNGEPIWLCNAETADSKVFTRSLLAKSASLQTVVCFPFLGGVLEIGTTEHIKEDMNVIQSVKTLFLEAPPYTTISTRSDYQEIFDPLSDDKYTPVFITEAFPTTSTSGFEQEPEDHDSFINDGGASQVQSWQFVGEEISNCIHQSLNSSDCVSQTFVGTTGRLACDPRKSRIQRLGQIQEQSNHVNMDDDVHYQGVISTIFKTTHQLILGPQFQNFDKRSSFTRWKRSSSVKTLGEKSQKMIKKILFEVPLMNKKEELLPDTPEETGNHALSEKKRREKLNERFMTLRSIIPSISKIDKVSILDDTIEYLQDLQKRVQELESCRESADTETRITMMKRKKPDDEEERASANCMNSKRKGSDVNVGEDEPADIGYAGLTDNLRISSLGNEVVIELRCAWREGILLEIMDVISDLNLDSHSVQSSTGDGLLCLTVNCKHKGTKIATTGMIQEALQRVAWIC

[3] = biological target: T3, GLABRA1 (GL1), recombinant GST or His fusion protein (Arabidopsis, UniProt P27900 1-228)
T3 sequence: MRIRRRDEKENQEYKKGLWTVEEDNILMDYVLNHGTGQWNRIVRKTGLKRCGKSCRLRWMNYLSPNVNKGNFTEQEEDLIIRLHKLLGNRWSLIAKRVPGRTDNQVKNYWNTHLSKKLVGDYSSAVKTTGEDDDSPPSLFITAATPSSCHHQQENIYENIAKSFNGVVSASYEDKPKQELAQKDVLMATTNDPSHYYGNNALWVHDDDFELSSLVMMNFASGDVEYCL

Measured: binding result

B1: TRIPTYCHON (TRY), recombinant GST or His fusion protein (natural protein)
chain: MDNTDRRRRRKQHKIALHDSEEVSSIEWEFINMTEQEEDLIFRMYRLVGDRWDLIAGRVPGRQPEEIERYWIMRNSEGFADKRRQLHSSSHKHTKPHRPRFSIYPS
binds: all assays above
